Source: a protein production outcome set (Wang et al. 2014)

Assay: label from the status in PepcDB records
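Also: failed if final PepcDB status was selected cloned or expressed and not failed if soluble or beyond.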

| Sequence | protein production |
| --- | --- |
| MKVTQNENLKLAQRGAFLSLVIYIILSIAKYMTGYVYDSAAVRADALNNMTDILVSVAVIVGLKISIKPADQNHPYGHLKSENISTLLVSFIIMFVGIQVIIENFPRLFTHDSHIPNFITIIISMISGLVMLCVFAINYRLSKRTKSSSLKSAAKDNLSDSLVSIGTAIGLMFTQIGFPIIDIILANILGLLIVYTGFGIFKESIFTLSDGFNEQDLEEYRLDILEVEDVIDVNNIKGRYHGSSIFIDVTIVVDPYLSLYEAHQICDKVEIHLHNKGISSVYVHPEPYTTKDEVK | failed |
| MKVTVVSRSGREVLKAPLDLPDSATVADLQEAFHKRAKKFYPSRQRLTLPVTPGSKDKPVVLNSKKSLKEYCDGNNNSLTVVFKDLGAQVSYRTLFFFEYLGPLLIYPVFYYFPVYKFLGYGEDCVIHPVQTYAMYYWCFHYFKRILETFFVHRFSHATSPIGNVFRNCAYYWSFGAYIAYYVNHPLYTPVSDLQMKIGFGFGLVCQVANFYCHILLKNLRDPSGAGGYQIPRGFLFNIVTCANYTTEIYQWLGFNIATQTIAGYVFLAVAALIMTNWALGKHSRLRKIFDGKDGKPKYPRRWVILPPFL | failed |
| MKVYDVTAPIYEGMPVYKNKPEKQPKRTTITNGYVTESRIDMDVHTGTHIDAPLHMVEGGATFETIPLNDLVGPCKLFDLTHVNDRITKDDIAHLDIQEGDFVLFKTKNSFEDAFHFEFIFVAEDAARYLADKQIRGVGIDALGIERAQEGHPTHKTLFSAGVIIIEGLRLKDVPEGRYFMVAAPLKLVGTDAAPARVLLFDREP | not failed |
| MKWSEISIHTTEEAVEAVSHILHEAGASGVAIEDPAELTKEREQQYGEIYALNPDEYPAEGVLIKAYFPQTDSLHETIAGVKSSIDVLPSYDIEIGTGNITVNEVNEEDWATAWKKYYHPVQISDTFTIVPTWEEYTPSSPEEKIIELDPGMAFGTGTHPTTTMCIRALEKTVQPGDTIIDVGTGSGVLSIAAAKLGASSVQAYDLDPVAVESAEMNVRLNKTDDVVSVGQNSLLEGIEGPVDLIVANLLAEIILLFPEDAARVVKSGGLFITSGIIAAKEKVISEALEKAGFTIEEVLRMEDWVAIIARNA | failed |
| MKYDVVVVGSGVAGPIVARDVAKAGFSVLLVDKKPAIGTPKQCAEGINVNVFKEFDIPYDKRFINREIYGARIYSPSGYTAELRYDKVSGVILERKVFDKMLAYYAAKAGADVWARTEVIDLLRKEGKIMGVKAKHEGELVEIEAKIIVAADGVESTVARLAGINTYAPPHEFDSAYEYEMIIEGYDPDLIHLWFGNEIAPRGYVWVFPKDEDRANVGIGINSDNEKTAKYYLDKWLKENNIPTKKILEINVGLVPVGGFVRELVKENVAVVGDAARQVNPVHGGGMYEAMKAANILAKWIVKALEEENLELLKNYTKEWWEVEGPKMERLLKLRRAMEKLTDEDIDVFVQLLGGTDLEKLAGGNYFEVVKALMKHPKVLMSKRRLEILKALL | not failed |
| MKYIIIGLGNYGGVLAEELSVLGHEVIGVDTNEHRVDVLKDKIATSFIIDATDEQSLSVLPLKDVDVVIVAIGENFGASVRVVALLKKKGVKHIYARAVDDVHKTVLEAFNLDSILTPEKEAARSLVQLLDLHVNVESFQIDEEHYVMKFKLPSCFVGYKVSDLSLETEFNIKIIALIKGEKVLNGLGISILEHQVENHFEENYELEEEDQLVCYGLYKNFMDFWKAL | failed |
| MKYIINHSNDTAFNIALEEYAFKHLLDEDQIFLLWINKPSIIVGRHQNTIEEINRDYVRENGIEVVRRISGGGAVYHDLNNLNYTIISKEDENKAFDFKSFSTPVINTLAQLGVKAEFTGRNDLEIDGKKFCGNAQAYINGRIMHHGCLLFDVDLSVLANALKVSKDKFESKGVKSVRARVTNIINELPKKITVEKFRDLLLEYMKKEYPEMTEYVFSEEELAEINRIKDTKFGTWDWNYGKSPEFNVRRGIKFTSGKVEVFANVTESKIQDIKIYGDFFGIEDVAAVEDVLRGVKYEREDVLKALKTIDITRYFAGISREEIAEAVVG | not failed |
| MKYLCLIYFDEAKLAAVPAEELAAIVDECMTYSDQLGKAGHYIASHALQSVQTATTLRHQGGRLAMTDGPFAETKEQLGGFYLIEARDLNQALQIAAKIPPGRLGCVEVRPVKEWE | not failed |
| MKYLLLPVVVLLAGCQSLSQSDGNAITDNSDSQVETAHPVEINQALLADESIDVIHPVADVDFSLNNTLKDQKAIDENNIWPRIRSQLTFDIPNQKRLVSQRNWYVKHPSYLKRVAKRAEPFLYYIVQELEKNDMPIELAFLPIVESAFDPFAYSHGRASGMWQFVPGTGERFGMKQNWWYDGRRDVVASTEGAIKYLKYLHKFFDGDWMLALAAYNSGEGRVRNAVRKNKRLGKPTDFWSLDLPKETRAYVPKLLALADIVKRPEDFNLSLYSIDNKSVLSQVDIKSQLDLAKAATLAGLSLAELQRLNPGFNRWATDPDGPHRLLLPSHTVEKFELGLSKLSKKDRLAWQRYKIKSGDNLGLIANKFNTRVDLIQQVNNIKGNQIRAGKHLLIPVAAKSLDSYVFSQEQRIAKKQNRPQKGRKLVHTVKSGDNLWDIGRKYKVNSKSIAKWNGFAPRDTLKLGQKLVIWQKSDTKSNKSNFANSKTGNNVENAIMRNITYKVRRGDSFARIADKFNVRISDIERWNNLDRKKYLQPGQRLKLSVDVTNNI | failed |
| MLAAWLGCVLPAGAGLPVETLRVPPGFRVELLTEAMPSAREMALSPAGILYVGSRTGKVYALPLQVPGATVRVVASGLEQPVGVAWRDGSLYVSAVSRVVRLDRIDSRLDDPPVPVVVSDRFPTETHHGWKFIAFGPDGKLYVPVGAPCNVCHRDEDRYANLMRMNADGSSLEVVARGIRNTVGFDWHPVTHELWFTDNGADMMGDDVPDDELNRITAPGQHFGYPFCHAGDVPDPEFGAGHPCSRYVPPVGKLGAHVAALGMRFYTGSNFPQAYRHNLFIAEHGSWNRSSKVGYRVVRVVLDAAGKVVRQEPFVEGWLRGERAWGRPVDVLVAPDGSLLVSDDYAGAVYRVRYTGKLEHHHHHH | failed |
| MLAILYDRIRPDERMLFERAEALGLPYKKVYVPALPMVLGERPKELEGVTVALERCVSQSRGLAAARYLTALGIPVVNRPEVIEACGDKWATSVALAKAGLPQPKTALATDREEALRLMEAFGYPVVLKPVIGSWGRLLAKVTDRAAAEALLEHKEVLGGFQHQLFYIQEYVEKPGRDIRVFVVGERAIAAIYRRSAHWITNTARGGQAENCPLTEEVARLSVKAAEAVGGGVVAVDLFESERGLLVNEVNHTMEFKNSVHTTGVDIPGEILKYAWSLAS | not failed |
| MLANQIKYVILHLTQSIIEYSMANLNCIKAVLAEKGIMSKWLAKTLKKDPATVSKWCNNHSQPDLYTLARIAEVLDVDIHKLICHTKEE | failed |
| MLAPGMGEWVYKANLFLFGEFAYYYPFFLFILNYVYYKRNYKLANFTRRELFGIGFAFFSSLLLFAVFYPNSGYILELAYAIFSTILGHTGSGIFALLLLLFSLVLLFPKFAKEILKIELDFTYLLKVEQAFKSLLMRVFGGENEKEDVGKSEPIVPKLNILQDSIYGNLQINKKGETNNLEQIIKDSNINASKNSITTAKENFEKLKNQILDETIEIDKQSLKESRSFVHEHSQQVRNFAQKASKMSISLDEDFNFISEEEVDMIPERFLKPKKLEDIKQIDTNKNLDEPSYKRKNIEIPVSNQEVKPKIFTKELELRENLIKKEKLEQEYKAYQNEILENKVKQEIKKLEEYDAINSSDIIEGNKYSFNSPKTIKTETEESDKINENKNLDKADNIFEFAPIVEELNHPYIEPTPIKNINEIVIEEKNTLDFIQNTETKIDNEKTNDQEIKLQKAVLAKEIAINQALLREIEQGEIEKPKDFTLPPLDFLANPKEHKQEINESEIDKKIYNLLEKLRRFKIGGDVISTYVGPVVTTFEFRPSADVKVSRILNLQDDLTMALMAKSIRIQAPIPGKDVVGIEVPNDEIQTIYLREILQSEVFKNAKSPLTIALGKDIVGNAFVTDLKKLPHLLIAGTTGSGKSVGINSMLLSLLYRNSPKTLRLMMIDPKMLEFSIYNDIPHLLTPVITDPKKAVNALSNMVAEMERRYRLMADAKTKNIENYNEKMKELGGEKLPFIVVIIDELADLMMTAGKDVEFYIGRLAQMARASGIHLIVATQRPSVDVVTGLIKANLPSRISYKVGQKIDSKVILDAMGAESLLGRGDCLFTPPGTSSIVRLHAPFASEFEIEKIVDFLKDQQSVEYDESFLKDQQSVGVTTNESFDGEADELYEEAKRVILEDGKTSISYLQRRLKIGYNRSANIIEQLTQNGILSEPDAKGQREIL | failed |
| MLARVRRVLALILIVLAGLVALLSPAFPALSHYGTLPRHGDKPLNVLLAGVDVNYDEQAPVWPYPAQPEDYSGRTDTIVLTQVRPDGTVKLLSIPRDSWVPIAGWSGGWGKINSANVHGGPDMLLNTVQALTGVHPDGYALLSLNALRAVTEAVGGVTIDVPQRMKYDDNAGHLHIDLQPGRQRLSGEQAEGFLRFRKDNMGDIGRVGRQQQFLTALIAEIRRPANVWKLPKVIAALDANAKTNLTRAQIAELLGAAQRGPQVSTFTVPGNFGMVGAASVWNVDTPRLDALLAEQFRDPGDPHGLRVLVLNADAPDGSARRLKAKLEALGYHNVSTANEQKPWPVTTVSGPATPAAALLRDLGYGQLDNAPSLPGSELTIRLGRDTPAQ | failed |
| MLAVGIVGLPNVGKSTLFNALTRANALAANYPFATIDKNVGVVPLEDERLYALQRTFAKGERVPPVVPTHVEFVDIAGLVKGAHKGEGLGNQFLAHIREVAAIAHVLRCFPDPDVVHVMGRVDPLEDAEVVETELLLADLATLERRLERLRKEARADRERLPLLEAAEGLYVHLQEGKPARTFPPSEAVARFLKETPLLTAKPVIYVANVAEEDLPDGRGNPQVEAVRRKALEEGAEVVVVSARLEAELAELSGEEARELLAAYGLQESGLQRLARAGYRALDLLTFFTAGEKEVRAWTVRRGTKAPRAAGEIHSDMERGFIRAEVIPWDKLVEAGGWARAKERGWVRLEGKDYEVQDGDVIYVLFNA | not failed |
| MLAVSFIAGVILIGLYGVDSSERYIAVSELLANPQDYSGQNINAMGVVEDRSLHKDPGVTSFDLKDENDENLKIHVNYVGNLPSNLAEGKQVTIRGSMISESTFEANKIVTGCPSKYTELEHHHHHH | failed |
| MLCARTDNHQGTGNVVTSAHMTRANDDDAGAAGIGAVAHMTTVDDNYTGHVERGKAARRFLPGATILKASVGPMDNNAYLVTCSATGETLLIDAANDAEVLIDLVRRYAPKLALIVTSHQHFDHWQALQAVAAATGAPTAAHPIDADPLPVKPDRLLTHGDSVRIGELTFDVIHLRGHTPGSIALALGGPVTGGVTQLFTGDCLFPGGVGKTWQPADFTQLLDDVTTRVFDVYADSTVIYPGHGDDTELGAERPSLSEWRARGW | failed |
| MLCCMRRTKQVEKNDDDQKIEQDGIKPEDKAHKAATKIQASFRGHITRKKLKGEKKDDVQAAEAEANKKDEAPVADGVEKKGEGTTTAEAAPATGSKPDEPGKAGETPSEEKKGEGDAATEQAAPQAPASSEEKAGSAETESATKASTDNSPSSKAEDAPAKEEPKQADVPAAVTAAAATTPAAEDAAAKATAQPPTETGESSQAEENIEAVDETKPKESARQDEGKEEEPEADQEHA | failed |
| MLCCPDPRRRGQHNNRRRNAMPKLHESRIHDLRPTQLTVGMIEVQAKKTHLAAMAPADQQAFMQAHPIPAVLGPGGQLYITDHHHLGRAALDAGVITGYFMVEADLSQHSLDDFWKAMDQNLWVHPLDEHGVRHYYASIPKHLEKLVDDPYRSLAGYVRDAGGYDKTPTAFAEFVWADFFRRSIPIEDLLADFQAAVHAALPLAKSKFAKALPGYNGKLEHHHHHH | failed |
| MLDANKLQQAVDQAYTQFHSLNGGQNADYIPFLANVPGQLAAVAIVTCDGNVYSAGDSDYRFALESISKVCTLALALEDVGPQAVQDKIGADPTGLPFNSVIALELHGGKPLSPLVNAGAIATTSLINAENVEQRWQRILHIQQQLAGEQVALSDEVNQSEQTTNFHNRAIAWLLYSAGYLYCDAMEACDVYTRQCSTLLNTIELATLGATLAAGGVNPLTHKRVLQADNVPYILAEMMMEGLYGRSGDWAYRVGLPGKSGVGGGILAVVPGVMGIAAFSPPLDEDGNSVRGQKMVASVAKQLGYNVFKG | not failed |
